Source: patent publication US20260258115A1 (MAPP BIOPHARMACEUTICAL, published 2026)

Assays:
RSV F on RSV-A2 virus = RSV F on RSV-A2 virus (Respiratory syncytial virus, RSV-A2, UniProt P03420 26-574); experiment: cell-based or functional assay
[1] = biological target: RSV prefusion F (preF), DS-Cav1 (Respiratory syncytial virus, UniProt P03420 26-513); experiment: BLI, IgG on anti-human IgG sensor, 100 nM antigen
[2] = biological target: RSV postfusion F (postF), F ΔFP (Respiratory syncytial virus, UniProt P03420 26-513); experiment: BLI, IgG on anti-human IgG sensor
[3] = biological target: RSV postfusion F (postF), F ΔFP trimer, subtype A (Respiratory Syncytial Virus, subtype A, UniProt P03420 26-513); experiment: BLI, IgG (Table 9A)
[4] = biological target: RSV F on RSV subtype A virus (RSV-A2) (Respiratory Syncytial Virus, subtype A, …, UniProt P03420 26-574); experiment: cell-based or functional assay
[5] = biological target: RSV prefusion F (preF), DS-Cav1 stabilized trimer, subtype A (Respiratory Syncytial Virus, subtype A, UniProt P03420 26-513); experiment: BLI, apparent IgG KD (Table 9A)

B1: ADI-41578 (antibody, V domains shown)
VH: EVQLVESGGGVVQPGRSLRLSCAASGFTLSSYVMDWVRQAPGKGLEWVAVISYDGSSKYYADSVKGRFTVSRDNSNNAMYLQMNSLRAEDTAVYYCARDPYYDILTGYSYFDYWGHGTTVTVSS
VL: SYVLTQPPSVSGAPRQTATITCGGNNIGSKSVNWYQQKPGQAPVLVVYDDSARPSGIPERFSGSNSGNTATLTVSSVEAGDEADYFCQVWDTSSAPYPWVFGGGTKLTVL
notes: also called Ab 852; Antibody Number 852
RSV F on RSV-A2 virus
  Neutralization IC50 (RSV subtype A): 0.0398 µg/mL
[1]
  Kd: 0.249 nM
[2]
  binding result: no binding (tested: 100 nM antigen)

B2: ADI-41256 (antibody, V domains shown)
VH: QVQLVQSGAEVKSPGSSATVSCKASGGTFGSYGISWVRQAPGQGLEWIGAIMPMFGTTNYAQKFQGRVTMTADESTSTVYMDVSSLRPDDTAVYYCVRDVFYDILTGYYDADYYHHYMDVWGKGTTVTVSS
VL: DIVMTQSPLSLPVTLGQPASISCRSGQSLVHSDGNTYLNWFQQRPGQSPRRLIYKVSNRGSGVPDRFSGSGSGTDFTLKISRVEAEDVGVYFCMQGTHWPRTFGQGTKVDIK
notes: also called Ab 578; Antibody Number 578
[3]
  binding result: no binding
[4]
  Neutralization - RSV A2 IC50 (pM): 85.8 pM
  neut IC50 (ug/ml) subtype A (wright): 0.019 µg/mL
[5]
  Kd: 0.35 nM

B3: ADI-41208 (antibody, V domains shown)
VH: QVQLVESGGDLVKPGGSLRLSCAASGFTLSGHYMSWIRQPPGKGLEWVSSISGGSTYTNYADSVKGRFTISRDNAENSLYLQMNSLRAEDTAVYYCARLAYSDYGPFYFDLWGRGTLVTVSS
VL: QSVLTQPPSVSGAPGQRVTISCTGSSSNIGAGYDVHWYQQLTGTAPKLLIFDNNNRPSGVPDRFSGSKSGTSASLAITGLQAEDEADYYCQSYDSRLSAPYVFGTGTKLTVL
[3]
  binding result: no binding
[4]
  Neutralization - RSV A2 IC50 (pM): 310 pM
  neut IC50 (ug/ml) subtype A (wright): 0.077 µg/mL
[5]
  Kd: 0.48 nM

B4: ADI-41590 (antibody, V domains shown)
VH: EVQLVQSGGGLVKPGGSLRLSCTASGFTFSDHYMSWIRQAPGKGLEWISYISSTSSFTNYANSVKGRFTISRDNAKNSLYLQMNSLRAEDTAVYYCARDRSILYSGYSLDYWGQGTLVTVSS
VL: DIQMTQSPSSLSASVGDRVTISCRASQSILNYLNWYQHKPGKAPKLLIYAASSLQSGVPSRFSGSGSGTDFTLTISGLQPEDFATYYCQQSDSTRTFGQGTKVEIK
RSV F on RSV-A2 virus
  Neutralization IC50 (RSV subtype A): > 25 µg/mL
[1]
  Kd: 3.02 nM
[2]
  binding result: no binding (tested: 100 nM antigen)

B5: ADI-36672 (antibody, V domains shown)
VH: EVQLVESGGGLVKPGGSLRLSCAASGFAFNNYYMNWVRQAPGKGLEWVSSISSASTYTDYADSVKGRFTISRDNAKNSLYLHLNSLRAEDTAVYYCARDYYGSGNYYNPKPLDVWGQGTTVTVSS
VL: QPVLTQPPSVSGAPGQRVTISCTGSSSNIGAGYDVHWYRQFPGTAPELLIYGNTNRPSGVPDRFSGSKSGTSASLAITGLQAEDEADYYCQSYDSSLKGVFGGGTKLTVL
[3]
  binding result: no binding
[4]
  Neutralization - RSV A2 IC50 (pM): 207 pM
  neut IC50 (ug/ml) subtype A (wright): 0.018 µg/mL
[5]
  Kd: 0.7 nM

B6: ADI-36669 (antibody, V domains shown)
VH: EVQLVQSGAEVKKPGASVRVYCKASGYTFTTYYIHWVRQAPGQGLEWMGMINPSGGTTSYAQKFQGRLTMTGDTSTSTVYMELNYLRSEDTAVYYCTRDFIYFYGSGDGFDYWGQGTLVTVSS
VL: EIVMTQSPSAMSASVGDRVTITCRASQGISNYLAWFQQKPGKVPKRLIYAASSLQSGVPSRFSGSGSGTEFTLTITSLQPEDFATYYCLQHNSYPFTFGPGTKVEIK
[3]
  binding result: no binding
[4]
  Neutralization - RSV A2 IC50 (pM): 111 pM
  neut IC50 (ug/ml) subtype A (wright): 0.025 µg/mL
[5]
  Kd: 1.1 nM

B7: ADI-41203 (antibody, V domains shown)
VH: QVQLVQSGAEVRKPGESLKISCKASGYRFTNYWIGWVRQMPGKGLEWMGVIYPGDSDTRYSPSFQGQVTMSADKSTNTAYLQWSSLKASDTAIYYCVSLYSDYDYGALDYWGQGTLVTVSS
VL: EIVMTQSPATLSVSPGERATLSCRASENVGRNLAWYQQKPGQAPRLLIYGASIRATGILARFSGSGSGTEYTLTISSLQSEDFAVYYCQQYHDWPSFTFGPGTKVDIK
[3]
  binding result: no binding
[4]
  Neutralization - RSV A2 IC50 (pM): 23.9 pM
  neut IC50 (ug/ml) subtype A (wright): 0.006 µg/mL
[5]
  Kd: 0.4 nM

B8: ADI-41191 (antibody, V domains shown)
VH: QVQLVQSGAEVKRPGASVKVSCKASGYIFSHYGISWVRQAPGQGLEWMAWISAYNGNTNYAQKLQGRVTVTTDTSTSTAYMELRSLRSDDTAVYYCAREPPSLSAAATLDYWGQGTLVTVSS
VL: EIVMTQSPLSLPVTLGQPASISCRSNQSLVYSDGNIYLSWFQQRPGQSPRRLIYKVSNRDSGVPDRFSGSGSGTDFTLKISRVEAEDVAVYYCMQVTHWPHEFGQGTKLEIK
[3]
  binding result: no binding
[4]
  Neutralization - RSV A2 IC50 (pM): 154 pM
  neut IC50 (ug/ml) subtype A (wright): 0.071 µg/mL
[5]
  Kd: 0.5 nM

B9: ADI-41609 (antibody, V domains shown)
VH: QVQLVESGAEVKKPGASVKVSCKASGYSFTSYYMHWVRQAPGQGLEWMGVISTNGGTASYSQNFRGRVTLTRDTSTSTAYMELSSLTSEDTAVYYCVREGYCNGGSCSYFDSWGQGTLVTVSS
VL: QSVLTQPPSVSGAPGQRVSISCTGSSSNIGAGYDVHWYQQLPGTAPKVLIYGNNYRPSGVPDRFSGSKSGTSASLAITGLQTEDEADYYCQSYDSRLSVVFGGGTKLTVL
RSV F on RSV-A2 virus
  Neutralization IC50 (RSV subtype A): > 25 µg/mL
[1]
  Kd: 29.1 nM
[2]
  binding result: no binding (tested: 100 nM antigen)

B10: ADI-41259 (antibody, V domains shown)
VH: QVQLVESGGRLVKPGGSLRLSCAASGFTFSDFYMSWIRQAPGKGLEWVSYISSSGDDPNYADSVKGRFTISRDNSKNSLYLQMNSLRAEDTAVYYCARDEVGWNNLDYYFGMDVWGQGTTVTVSS
VL: DIVMTQSPLSLPVTLGQPASISCRSSQSLVHSDGNTYLSWFHQRPGQSPRRLIYKVSNRDSGVPNRFSGGGSGTDFTLKISRVEAEDVGFFYCMQGTHWQKTFGQGTKVEIK
[3]
  binding result: no binding
[4]
  Neutralization - RSV A2 IC50 (pM): 122 pM
  neut IC50 (ug/ml) subtype A (wright): 0.015 µg/mL
[5]
  Kd: 0.34 nM

B11: ADI-41302 (antibody, V domains shown)
VH: QVQLVESGGGVVQPGRSLRLSCAASGFTFSSYAMQWVRQAPGKGLEWVAVMTNDGDDKYYADSVRGRFTISRDNSKNTLYLQMNNLRPEDTAVYYCARDLFEWWELLGYCYAMDVWGQGTTVTVSS
VL: QSVLTQPPSASGSPGQSVTISCTGTSSDVGAYNYVSWYQQHPGKAPKLIIYEVYKRPSGVPDRFFGSKSGNTASLTVSGLQAEDEADYYCSSYAGSNTLGVFGGGTKVTVL
[3]
  binding result: no binding
[4]
  Neutralization - RSV A2 IC50 (pM): 133 pM
  neut IC50 (ug/ml) subtype A (wright): 0.006 µg/mL
[5]
  Kd: 0.65 nM

B12: ADI-41601 (antibody, V domains shown)
VH: EVQLLESGGGLVKPGGSLRLSCAGSGFRFSDYYMTWIRQAPGKGLEWVSYISSSSTYTYYTDSVKGRFTVSRDNAKNSLYLQMNTLRAEDTAIYYCAISNRYDSRTFYYDYWGQGTLVTVSS
VL: QSVLTQPPSVSGAPGQRVIISCTGSSSNIGAGYDVHWYQQFPGTAPKLLIYGNNNRPSGVPERFSGSKSGTSASLAITGLQADDEADYYCQSYDSLSEVVFGGGTKVTVL
notes: also called Ab 875; Antibody Number 875
RSV F on RSV-A2 virus
  Neutralization IC50 (RSV subtype A): > 25 µg/mL
[1]
  Kd: 0.503 nM
[2]
  binding result: no binding (tested: 100 nM antigen)

B13: ADI-36677 (antibody, V domains shown)
VH: QVQLVQSGGGLVQPGGSLRLSCAASGFTFSSYEMNWVRQAPGKGLEWISYISSSGDTKYYADSVKGRFTVSRDNAKYSLYLQMDSLRAEDTAVYYCASLYDSRGYYWVFDYWGQGTLVTVSS
VL: DIVMTQSPSSLSASVGDRVTITCQASQDISTYLNWYQHKPGKAPNLLIYDASNLEPGVPSRFSGSGSGTDFTFTISSLQPEDIATYYCLQHDNLPPTFGQGTKVDIK
[3]
  binding result: no binding
[4]
  Neutralization - RSV A2 IC50 (pM): 144 pM
  neut IC50 (ug/ml) subtype A (wright): 0.019 µg/mL
[5]
  Kd: 0.54 nM

B14: ADI-41591 (antibody, V domains shown)
VH: QVTLKESGGGLVKPGGSLRLSCAASGFTFSDYYMSWIRQAPGKGLEWVSYISSSSSYTNYADSVKGRFTISRDNAKNSLYLQMNSLRAEDTAVYYCAREAVAAAGTDYFDYWGQGTLVTVSS
VL: QSVLTQPPSVSGAPGQRVTISCTGSSSNIGAGYDVHWYQQPPRTAPKLLIYGNSNRPSGVPDRFSGSKSGTSASLAITGLQAEDEADYYCQSYDSSLSGYVFGTGTKLTVL
notes: also called Ab 865; Antibody Number 865
RSV F on RSV-A2 virus
  Neutralization IC50 (RSV subtype A): > 25 µg/mL
[1]
  Kd: 4.26 nM
[2]
  binding result: no binding (tested: 100 nM antigen)

B15: ADI-36676 (antibody, V domains shown)
VH: EVQLLESGGGVVQPGRSLRLSCAASGFSFRNYDMHWVRQAPGKGLEWVAIISYDGSNKYADSVKGRFTISRDTSKNTLYLQMNSLRVEDTAVYYCARADSSGYYKGSEYFQHWGQGTLVTVSS
VL: SYELTQLPSVSVAPGQTARITCGGNNIGTKSVQWYQHKPGQAPVLVVYDDSDRPSDIPERFSGSNSGNTATLTISRVEAGDEADYYCQVWDSSSDHYVFGTGTKLTVL
notes: also called Ab 832; Antibody Number 832
[3]
  binding result: no binding
[4]
  Neutralization - RSV A2 IC50 (pM): 130 pM
  neut IC50 (ug/ml) subtype A (wright): 0.006 µg/mL
[5]
  Kd: 0.28 nM

B16: ADI-41274 (antibody, V domains shown)
VH: EVQLVESGGGLVKPGGSLRLSCAASGFSFSSYAMNWVRQAPGKGLQWVSSISAGSSYIDYADSVKGRFTISRDNAENSLFLQMNSLRVEDTAVYYCARVGSYTHGYEFDYWGQGTLVTVSS
VL: QPVLTQPPSVSGAPGQRVTISCTGSNSNIGAGYDVHWYQQLPGTAPKLLIYASTIRPSGVPDRFSGSKSGTSASLAITGLQAEDEADYYCQSYDRNLSVVFGGGTKVTVL
notes: also called Ab 592; Antibody Number 592
[3]
  binding result: no binding
[4]
  Neutralization - RSV A2 IC50 (pM): 26.6 pM
  neut IC50 (ug/ml) subtype A (wright): 0.109 µg/mL
[5]
  Kd: 0.48 nM
